Changes are numbered by the printed parent chain.
B1: hu8E2-TS-14 (antibody, V domains shown)
VH: EVQLLESGGGLVQPGGSLRLSCAASGFTFSWYSMTWVRQAPGKGLEWVSSIVPSGGHTQYADSVKGRFTISRDNSKNTLYLQMNSLRAEDTAVYYCAKGPGWGSFDLWGRGTLVTVSS
VL: DIQMTQSPSSLSASVGDRVTITCQASQDINNYLNWYQQKPGKAPKLLIYDASNLQTGVPSRFSGSGSGTDFTFTISSLQPEDIATYYCQQHDNQSPTFGPGTKVDIK
B2: hu8E2-TS-64 (antibody, V domains shown)
VH: B1 VH
VL: B1 VL with H91Y, D92E, N93S, S95W, T97Q
B3: hu8E2-TS-89 (antibody, V domains shown)
VH: B1 VH with S30W, W31R, Y32W, M34I
VL: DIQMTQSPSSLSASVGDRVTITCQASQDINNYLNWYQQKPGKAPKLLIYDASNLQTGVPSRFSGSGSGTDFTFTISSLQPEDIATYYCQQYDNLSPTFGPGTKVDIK
B4: hu8E2-TS-9 (antibody, V domains shown)
VH: B1 VH
VL: B1 VL with H91A, D92E, N93E
B5: hu8E2-TS-79 (antibody, V domains shown)
VH: B1 VH with S30A, Y32F, M34V
VL: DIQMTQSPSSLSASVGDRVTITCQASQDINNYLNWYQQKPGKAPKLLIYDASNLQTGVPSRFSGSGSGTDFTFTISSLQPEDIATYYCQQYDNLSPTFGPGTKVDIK
B6: hu8E2-TS-51 (antibody, V domains shown)
VH: B1 VH
VL: B1 VL with H91Y, D92E, N93S, S95W, T97F
B7: hu8E2-TS-17 (antibody, V domains shown)
VH: B1 VH
VL: B1 VL with Q89S, H91F, D92E, N93S
B8: hu8E2-TS-88 (antibody, V domains shown)
VH: B1 VH with S30W, W31R, Y32W, M34T
VL: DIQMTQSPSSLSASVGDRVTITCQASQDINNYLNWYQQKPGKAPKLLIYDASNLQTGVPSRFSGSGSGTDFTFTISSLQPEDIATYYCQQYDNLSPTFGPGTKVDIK
B9: hu8E2-TS-101 (antibody, V domains shown)
VH: B1 VH with S54W, G56D, H57L
VL: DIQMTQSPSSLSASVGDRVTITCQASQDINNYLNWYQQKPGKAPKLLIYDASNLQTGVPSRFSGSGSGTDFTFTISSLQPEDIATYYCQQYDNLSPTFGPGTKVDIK
B10: hu8E2-TS-69 (antibody, V domains shown)
VH: B1 VH with S30G, Y32W, M34V
VL: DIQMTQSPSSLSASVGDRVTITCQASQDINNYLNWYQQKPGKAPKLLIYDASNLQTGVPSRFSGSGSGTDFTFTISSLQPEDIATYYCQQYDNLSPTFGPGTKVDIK
B11: hu8E2-TS-66 (antibody, V domains shown)
VH: B1 VH with S30A, Y32W, M34I, T35A
VL: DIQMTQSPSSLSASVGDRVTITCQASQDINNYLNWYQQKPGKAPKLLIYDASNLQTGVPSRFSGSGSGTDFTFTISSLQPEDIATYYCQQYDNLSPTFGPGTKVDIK
B12: hu8E2-TS-107 (antibody, V domains shown)
VH: B1 VH with S54W, G56D, H57F
VL: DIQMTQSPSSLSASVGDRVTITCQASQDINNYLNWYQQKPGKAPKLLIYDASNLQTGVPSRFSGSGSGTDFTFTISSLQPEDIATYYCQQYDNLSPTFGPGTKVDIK
B13: hu8E2-TS-63 (antibody, V domains shown)
VH: B1 VH
VL: B1 VL with H91Y, N93T, S95Q, T97N
B14: hu8E2-TS-6 (antibody, V domains shown)
VH: B1 VH
VL: B1 VL with Q89E, H91F, D92E, N93S
B15: hu8E2-TS-32 (antibody, V domains shown)
VH: B1 VH
VL: B1 VL with Q89T, H91W, D92E, N93T
B16: hu8E2-TS-57 (antibody, V domains shown)
VH: B1 VH
VL: B1 VL with H91Y, D92E, N93T, S95M, T97L
B17: hu8E2-TS-92 (antibody, V domains shown)
VH: B1 VH with Y32W, M34I
VL: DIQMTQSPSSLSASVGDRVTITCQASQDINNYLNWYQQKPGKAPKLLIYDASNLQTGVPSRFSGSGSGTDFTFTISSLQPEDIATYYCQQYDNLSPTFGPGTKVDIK
B18: hu8E2-TS-29 (antibody, V domains shown)
VH: B1 VH
VL: B1 VL with H91S, D92E, N93E
B19: hu8E2-TS-76 (antibody, V domains shown)
VH: B1 VH with S30W, W31R, Y32W, M34I
VL: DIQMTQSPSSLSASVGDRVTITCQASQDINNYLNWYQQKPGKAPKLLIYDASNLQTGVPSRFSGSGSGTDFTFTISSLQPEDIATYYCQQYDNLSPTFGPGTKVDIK
B20: hu8E2-TS-103 (antibody, V domains shown)
VH: B1 VH with S54Y, G56D, H57L
VL: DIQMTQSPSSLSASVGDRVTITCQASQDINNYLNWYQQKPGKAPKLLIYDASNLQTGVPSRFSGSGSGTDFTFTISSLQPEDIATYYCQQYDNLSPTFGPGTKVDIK
B21: hu8E2-TS-2 (antibody, V domains shown)
VH: B1 VH
VL: B1 VL with H91A, D92E, N93D
B22: hu8E2-TS-7 (antibody, V domains shown)
VH: B1 VH
VL: B1 VL with D92E
B23: hu8E2-TS-22 (antibody, V domains shown)
VH: B1 VH
VL: B1 VL with H91F, D92E, N93T
B24: hu8E2-TS-4 (antibody, V domains shown)
VH: B1 VH
VL: B1 VL with D92E, N93F
B25: hu8E2-TS-20 (antibody, V domains shown)
VH: B1 VH
VL: B1 VL with H91N, D92E, N93S
B26: hu8E2-TS-58 (antibody, V domains shown)
VH: B1 VH
VL: B1 VL with H91Y, D92E, N93T, S95Q, T97F
B27: hu8E2-TS-21 (antibody, V domains shown)
VH: B1 VH
VL: B1 VL with H91S, D92E, N93S
B28: hu8E2-TS-108 (antibody, V domains shown)
VH: B1 VH with S54W, G56T, H57L
VL: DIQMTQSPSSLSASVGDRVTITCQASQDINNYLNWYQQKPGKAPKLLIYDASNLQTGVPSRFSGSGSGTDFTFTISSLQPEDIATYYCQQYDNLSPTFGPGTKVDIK
B29: hu8E2-TS-104 (antibody, V domains shown)
VH: B1 VH with S54W, G56T, H57I
VL: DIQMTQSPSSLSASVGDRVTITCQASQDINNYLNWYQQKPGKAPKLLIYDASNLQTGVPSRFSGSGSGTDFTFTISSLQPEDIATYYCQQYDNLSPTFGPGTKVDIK
B30: hu8E2-TS-71 (antibody, V domains shown)
VH: B1 VH with S30W, W31R, Y32W, M34T
VL: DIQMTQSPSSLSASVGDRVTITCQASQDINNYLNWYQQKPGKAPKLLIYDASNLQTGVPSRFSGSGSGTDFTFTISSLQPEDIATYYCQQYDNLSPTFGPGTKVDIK
B31: hu8E2-TS-55 (antibody, V domains shown)
VH: B1 VH
VL: B1 VL with H91Y, D92E, N93T, S95T, T97A
B32: hu8E2-TS-49 (antibody, V domains shown)
VH: B1 VH
VL: B1 VL with H91Y, D92E, N93S, S95A, T97E
B33: hu8E2-TS-97 (antibody, V domains shown)
VH: B1 VH with S54W, G55A, G56D, H57Y
VL: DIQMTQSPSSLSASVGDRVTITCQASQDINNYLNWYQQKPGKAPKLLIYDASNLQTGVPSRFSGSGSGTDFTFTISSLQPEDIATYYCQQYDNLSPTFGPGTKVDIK
B34: hu8E2-TS-91 (antibody, V domains shown)
VH: B1 VH with S30G, Y32W, M34L
VL: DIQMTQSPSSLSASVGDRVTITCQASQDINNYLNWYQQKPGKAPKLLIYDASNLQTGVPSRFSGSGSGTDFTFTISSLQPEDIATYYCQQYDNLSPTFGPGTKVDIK
B35: hu8E2-TS-82 (antibody, V domains shown)
VH: B1 VH with S30W, W31R, Y32W, M34V
VL: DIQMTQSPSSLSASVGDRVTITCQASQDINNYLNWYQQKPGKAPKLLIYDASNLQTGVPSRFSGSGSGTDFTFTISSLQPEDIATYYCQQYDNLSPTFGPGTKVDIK

What follows are binders tested against T1, human IL-11Rα on transfected cells (human, UniProt Q14626 23-422) (assay: cell-based or functional assay).
T1 sequence: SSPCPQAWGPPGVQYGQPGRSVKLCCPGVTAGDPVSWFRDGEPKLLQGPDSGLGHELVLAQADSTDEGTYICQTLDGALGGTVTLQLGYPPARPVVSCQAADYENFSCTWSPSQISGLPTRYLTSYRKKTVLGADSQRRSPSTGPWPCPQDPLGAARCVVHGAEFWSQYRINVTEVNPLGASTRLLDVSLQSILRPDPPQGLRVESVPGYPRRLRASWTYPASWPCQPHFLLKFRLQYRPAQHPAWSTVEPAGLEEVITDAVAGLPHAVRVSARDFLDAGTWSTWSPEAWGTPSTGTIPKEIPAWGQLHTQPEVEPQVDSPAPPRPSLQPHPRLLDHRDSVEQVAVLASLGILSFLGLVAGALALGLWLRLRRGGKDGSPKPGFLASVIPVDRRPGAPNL

Binder	Fold increase in potency relative to 8E2 [fold]	IC50 [µg/mL]
B1	1.6	0.52
B2	5.4	0.26
B3	1.4	0.12
B4	3.1	0.68
B5	5.3	0.21
B6	3.6	0.28
B7	2.3	0.35
B8	3	0.36
B9	2.1	0.19
B10	0.9	1.46
B11	0.5	2.84
B12	7.4	0.2
B13	5.1	0.27
B14	1.4	0.41
B15	2.4	0.41
B16	3.9	0.25
B17	2.3	0.18
B18	2.5	0.33

Binder	Fold increase in potency relative to 8E2 [fold]	IC50 [µg/mL]
B19	3.4	0.32
B20	4.5	0.33
B21	7.9	0.26
B22	3.3	0.63
B23	2	0.4
B24	6.6	0.31
B25	0.6	1.3
B26	6	0.23
B27	2.7	0.31
B28	12.7	0.12
B29	5.2	0.28
B30	3.8	0.29
B31	4.8	0.21
B32	5.2	0.19
B33	1.6	0.26
B34	1.3	0.34
B35	4.3	0.26

Each binder was assayed against T2, human IL-11Rα (form used in the assay not stated) (human, UniProt Q14626 23-363, limits assumed) (assay: Biacore, pH 8.5, 37°C).
T2 construct: also called hIL-11R; hIL-11Rα
T2 sequence: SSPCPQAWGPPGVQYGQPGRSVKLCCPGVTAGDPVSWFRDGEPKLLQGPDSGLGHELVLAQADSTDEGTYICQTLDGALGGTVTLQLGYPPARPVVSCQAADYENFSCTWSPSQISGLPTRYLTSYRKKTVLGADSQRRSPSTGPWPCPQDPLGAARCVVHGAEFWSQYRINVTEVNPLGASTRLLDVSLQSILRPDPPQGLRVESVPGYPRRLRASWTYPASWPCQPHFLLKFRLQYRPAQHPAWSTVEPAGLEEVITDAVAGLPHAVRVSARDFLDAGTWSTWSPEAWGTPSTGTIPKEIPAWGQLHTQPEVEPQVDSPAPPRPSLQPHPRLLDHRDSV

Binder	Kd [nM]
B1	0.342
B2	0.636
B3	4.5
B4	2.29
B5	2.13
B6	0.455
B7	0.39
B8	2.25
B9	0.785
B10	3.56
B11	7.46
B12	1.29
B13	0.642
B14	0.289
B15	9.56
B16	0.658
B17	3.2
B18	1.06

Binder	Kd [nM]
B19	2.73
B20	0.497
B21	0.529
B22	0.108
B23	0.838
B24	0.295
B25	0.284
B26	0.957
B27	0.23
B28	1.93
B29	0.995
B30	2.49
B31	0.483
B32	1.5
B33	1.22
B34	4.73
B35	2.05
